Measurements taken from article PMC7913695, “Mechanism of DNA cleavage by the endonuclease SauUSI: a major barrier to horizontal gene transfer and antibiotic resistance in Staphylococcus aureus”.

T1: SauUSI (Staphylococcus aureus, UniProt Q2FVC3 1-953)
T1 sequence: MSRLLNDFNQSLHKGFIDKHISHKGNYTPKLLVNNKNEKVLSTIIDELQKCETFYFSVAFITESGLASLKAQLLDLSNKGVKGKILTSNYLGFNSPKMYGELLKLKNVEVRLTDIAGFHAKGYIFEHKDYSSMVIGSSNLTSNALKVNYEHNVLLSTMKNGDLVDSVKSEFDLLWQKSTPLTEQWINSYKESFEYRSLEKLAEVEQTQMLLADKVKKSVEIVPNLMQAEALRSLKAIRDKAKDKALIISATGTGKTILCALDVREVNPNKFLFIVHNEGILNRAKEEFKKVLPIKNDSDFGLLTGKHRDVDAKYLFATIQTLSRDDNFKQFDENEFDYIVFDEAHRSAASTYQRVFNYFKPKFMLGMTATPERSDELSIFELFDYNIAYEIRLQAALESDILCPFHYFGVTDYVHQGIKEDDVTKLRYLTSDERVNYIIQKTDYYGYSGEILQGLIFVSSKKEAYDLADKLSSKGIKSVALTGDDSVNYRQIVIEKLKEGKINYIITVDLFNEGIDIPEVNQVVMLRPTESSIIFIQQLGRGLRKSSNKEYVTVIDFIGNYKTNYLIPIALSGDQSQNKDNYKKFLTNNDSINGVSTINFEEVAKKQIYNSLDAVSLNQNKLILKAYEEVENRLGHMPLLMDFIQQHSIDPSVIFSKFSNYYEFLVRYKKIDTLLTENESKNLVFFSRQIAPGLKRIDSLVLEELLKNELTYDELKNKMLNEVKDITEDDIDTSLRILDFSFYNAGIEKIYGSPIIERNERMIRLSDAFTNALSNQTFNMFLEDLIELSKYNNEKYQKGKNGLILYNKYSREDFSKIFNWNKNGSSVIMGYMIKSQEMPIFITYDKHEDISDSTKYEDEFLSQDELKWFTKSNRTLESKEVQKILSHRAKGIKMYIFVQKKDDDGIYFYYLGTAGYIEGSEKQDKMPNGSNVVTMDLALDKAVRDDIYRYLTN


How the values were obtained:
[1] = biological target: SauUSI (Staphylococcus aureus); test: SEC-MALS; 1 mg/ml SauUSI injected on Superdex 200 in 50 mM Tris-HCl pH 8, 50 mM NaCl, 1 mM DTT
SauUSI = biological target: T1, SauUSI; test: EMSA; 250 nM DNA; shift first detected at 0.1 uM SauUSI (0.05-1.6 uM tested); Protein and DNA incubated 20 min on ice; 5% native PAGE, ethidium bromide stain; binding buffer, salt and pH not stated; settings: protein: recombinant; tags: His-tag (HisTrap purified); chain copies: 2; blunt

Row | Molecule | stoichiometry N [1] | binding result (SauUSI)
1 | SauUSI (enzyme) | 2 | 
2 | EMSA methylated 60 bp (specific DNA) (dsDNA, 5-methyl-dC at position 28 of strand 1 and position 31 of strand 2 (both strands)) DNA 1: GCCGCGGATCCTTCACAAGACGATTACCGGCGCTGAAAGACCAGCATATGCAATTTGACT DNA 2: AGTCAAATTGCATATGCTGGTCTTTCAGCGCCGGTAATCGTCTTGTGAAGGATCCGCGGC |  | binds
